The nanobody polyreactivity screen of Harvey et al. (2022)

Experiment: yeast display, Sf9 membrane polyspecificity reagent, FACS + sequencing; frameworks hold sequencing errors
Outline: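 Galactose-induced (36–48 hours) yeast carrying a synthetic nanobody display library were exposed to 10% biotinylated, detergent-solubilized Sf9 membrane reagent at 4 °C for 1 hour. FACS followed streptavidin microbead enrichment, using low and high (top ~1%) gates for expression (anti-HA) and reagent binding (streptavidin). Colony PCR, MiSeq 2 × 250 sequencing and CDR-length filtering followed. Labels for polyreactivity reflect the gate of origin.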

| Sequence | polyreactivity (PSR sort gate) |
| --- | --- |
| QVQLVESGGGLVQAGGSLRLSCASSGSIFLINAMGWYRQAPGKERELVAAISRSGGRTYYADSVKGRFTISRDNAKNTVYLQMNSLKPEDTAVYYCAVPSIYYAGRAYDYWGQGTQVTVSS | high polyreactivity |
| QVQLVESGGGLVQAGGSLRLSCASSGSIFPRYAMGSYRPAPGKERELVAAISQSGGRTYYADSVKGRFTISRDNAKNTVYLQMNSMKPEDTAVYYCAALVSGEYDYWGQGTQVTVSS | high polyreactivity |
| QVQLVESGGGLVQAGGSLRLSCASSGSIFSTYAMGWYRQAPGKEMELVATIRRGGSTYYADSVKGPFTISRDNAKNTVYLQMNSLKPEDTELYYCAAAGGRFIRYGYWGQGTQVTVSS | high polyreactivity |
| QVQLVESGGGLVQAGGSLRLSCASSGSIFSYNAMGWYRQAPGKERELVAAITRSGGSTYYADSVKGRFTISRDNAKNTVYLQMNSLKPEDTAVYYCAVYLPYSQRYVHYYYWGQGTQVTVSS | high polyreactivity |
| QVQLVESGGGLVQAGGSLRLSCASSGSIFVHNDMGWYRQAPGKERELVARINTGGGTNYADSVKGRFTISRDNSKNTVYLQMNRLKPEDRAVYYCAAVLFVFYDEYGYWEYFSQYDYWGQGTKVTVSS | low polyreactivity |
| QVQLVESGGGLVQAGGSLRLSCASSGSILTSYAMGWYRQAPRKERELVASIDWSAGTTYYADSVKGRFTISRDNAKNTVYLQMNSLKPEDTAVYYCGKLEFLSGYPYRPEYGSWGQGTQVTVSS | low polyreactivity |
| QVQLVESGGGLVQAGGSLRLSCASSGSNVYIYAMGWYRQAPGKERELVAAISSAGSTYYADSVKGRFTISRDNAKNTVYLQMNSLKPEDTAVYYCAARAQYPGWRYNYWGQGTQVTVSS | high polyreactivity |
| QVQLVESGGGLVQAGGSLRLSCASSGSTFHDYAMGWYRQAPGKERELVAAISNSGGSTYYADSVKGRFTISRDNAKNTVYLQMNSLKPEDTAVYYCAADGRWYWDYEYWGQGTQVTVSS | low polyreactivity |
| QVQLVESGGGLVQAGGSLRLSCASSGSTFLRNAMGWYRHAPRKERELVAAFSLGSGSTYYADSVKGRFTISRDNAKNTVYLQMNSLKPEDTAVYYCAADVSRWLDYGYDYWGQGTQVTVSS | low polyreactivity |
| QVQLVESGGGLVQAGGSLRLSCASSGSTFPPYAMGWYRQAPGKERELVAAISYRDTGTYYADSVKGRFTISRDNAKNTVYFQMNSLKPEDTAVYYCAADYHIVYYFLYYYWGQGTQVTVSS | low polyreactivity |
| QVQLVESGGGLVQAGGSLRLSCASSGSTFPSNAMGWYRQAPGKERELVAAISRSGGSTYYADSVKGRFTISRDNAKNTVYLQMNSLKPEDTAVYYCAVQVRPNYGGTRIHRGGYDYWGQGTQVTVSS | low polyreactivity |
| QVQLVESGGGLVQAGGSLRLSCASSGSTFPVYAMGWYRQPPGKDRELVAAITSGGSTYYADSVKGRFTISRDNEKNTVSLQMNIRKPEDTAVYYCNADGYLSYAFDYWGQGTQVTVSS | low polyreactivity |
| QVQLVESGGGLVQAGGSLRLSCASSGSTFVTYAMGWYRQAPGKERELVAAITEDGASTYYADSVKGRFTISRDNAKNTVYLQMNSLKPEDTAVYYCAADPTYWPVWYVLYDYWGQGTQVTVSS | low polyreactivity |
| QVQLVESGGGLVQAGGSLRLSCASSGSTFYFNAMGWSRQAPGKERELVAGNSSGGSTYYADSVKGRFTISRDNAKNTVYLQMNSLKPEDTAVYYCAADSDTFYYTGYDYDYWGQGTQVTVSS | low polyreactivity |
| QVQLVESGGGLVQAGGSLRLSCASSGSTFYHYAMVWYRQAPGKERELVAAISWSGGSTYYADSVKGRFTISRDNAKNTVYLQMNSLKPEDTAVYYCAARGRARQRTSFEYWGQGTQVTVSS | high polyreactivity |
| QVQLVESGGGLVQAGGSLRLSCASSGSTFYNNAMGWYRPAPGKDRELVAAISSGGGTYYADSVKGRFTISRDNAKNTVYLQMNSLKPEDTAVYYCAADFANTTHWGRIKRYDYWGQGTQVTVSS | low polyreactivity |
| QVQLVESGGGLVQAGGSLRLSCASSGSTFYTNAMGWYRQAPGKESEFVDAISWSGSSTYADSVKGRFTISRDNAKITVYLQMNSLKPEDTAVYYCAKATSSLYHYRYDYWGQGTQVTVSS | low polyreactivity |
| QVQLVESGGGLVQAGGSLRLSCASSGSTWWYAMGWYRQAPGKEMELVATISYSGGSTYYADSVKGRFTISRDNAKNSVYLQMNSLKPEDTAVYYCAAKKWTAVRRDFWGQGTQVTVSS | high polyreactivity |
| QVQLVESGGGLVQAGGSLRLSCASSGYTFYAYAMGWYRQAPGKERELVAAISGSGGNTRYADSVKGRFTISRDNAKNTVYLQMNILKPEDTAVYYCAKRIIRSPFGAYGYWGQGTQVTVSS | high polyreactivity |
| QVQLVESGGGLVQAGGSLRLSCATSGRTFWFYAMGWYRQAPGKERELVAAISSGGSTNYADSVKGRFTISRDNAKNTVYLQMNSLKPEVTAVYYCAKVGNIPYGTRYYSNRYDYWGQGTQVTVSS | low polyreactivity |
| QVQLVESGGGLVQAGGSLRLSCAVSGFNFPYYAMGWYRQAPGKERELVAAINQRGGSTYYADSVKGRFTISRDNAKNTVYLQMNSLKPEDTAVYYCAADRHSKTYYYSYGYWGQGTQVTVSS | high polyreactivity |
| QVQLVESGGGLVQAGGSLRLSCDASGFIFWWYAMGWYRQAPGKEREFVAYISWSGARTYYADSVKGRFTISRDNAKNTVYLLMNSLKQEDTAVYYCNADRIGRYYQSYGGGHMDYWGQGTQVNVSS | high polyreactivity |

| Sequence | polyreactivity (PSR sort gate) |
| --- | --- |
| QVQLVESGGGLVQAGGSLRLSCDASGFIFYYNAMGWYRQAPGKESELVAGISWDGSTYYADSVKGRFTISRDNAKNTVYLQMNSLKPEETAVYYCAAALLDDYFDLFIFGYWGQGTQVTVSS | low polyreactivity |
| QVQLVESGGGLVQAGGSLRLSCDASGFTFTRNAMGWYRQAPGKERELVDAISKRGGTTYYADSVKGRFTISRDYAKNTVYLQMNTLKPEDTSVYYCAKDGGITGGYWGQGTQVTVSS | high polyreactivity |
| QVQLVESGGGLVQAGGSLRLSCDASGGTFPYYAMGWYRQATGKERELVPDISGTDGSTYYADSVKGRFTISRDNANYTVYLQMNSLKPEDTAVYYCNADPHWWYWDYDYWGQGTQVTVSS | high polyreactivity |
| QVQLVESGGGLVQAGGSLRLSCDASGITFLNYAMGWYRQAPGKERELVAAIDTRGGRTNYADSVKGRFTISRDNAKNTVYLQMNSLKPEDTAVYYCAADPFYWYRSVRGEYWGQGTQVTVSS | low polyreactivity |
| QVQLVESGGGLVQAGGSLRLSCDASGITFYSYAMGWYRQAPGKEREFVAAITRGGGITSYADSVKGRFTISRDNAKNTVYLQMNSLKPEDTAVYYCAVYTYHYGRSTYYKYDYWGQGTQVTVSS | high polyreactivity |
| QVQLVESGGGLVQAGGSLRLSCDASGITVAGYAMGWYRHAPGKEWELVAAISRGGSTYYADSVKGRFTISRDNAKNTVYLQMNSLKPEDTAVYYCNTDDQQGYFTYTGWNYNYWGQGTQVSVSS | high polyreactivity |
| QVQLVESGGGLVQAGGSLRLSCDASGLIFSWYAMGWYRQPPGKERELVAAISKGGGSTYYADSVKGRFTISRDNAKITVYLQMNSLKPEDTAVYYCAAASSYGYGYWGQGTQVTVSS | high polyreactivity |
| QVQLVESGGGLVQAGGSLRLSCDASGLNMYKNGMGWYRQAPGKERELVAVISRSGCRTYYADSVKGRFTISRDTAKNTVYVQMNSLKPEDTAVYYCAARQYGPRYTYYYWGQGTQVTVSS | high polyreactivity |
| QVQLVESGGGLVQAGGSLRLSCDASGLTFAYYAMGWYRQEPGKERELVADISWNGGRTYYSDSVKGRFTISGYNAKNTVYLQMNSLKPEDSAVYYCAAQVTSSFYWGQGTQVTVSS | high polyreactivity |
| QVQLVESGGGLVQAGGSLRLSCDASGLTFTRNAMGWYRPAPGKERELVAAITSTGSTNYADSVKGRFTISRDNAKNTVYLQMNSLKPEDTAVYYCNARNAYYDDNYWGQGTQVTVSS | low polyreactivity |
| QVQLVESGGGLVQAGGSLRLSCDASGNTFLWYAMGWYRQAPGKERELVAAITYSGGSTYYADSVKGRFTISRDNAKITVYLQMNSLKPEDTARYYCNADYFGYDYVEYGYWGQGTQVTVSS | low polyreactivity |
| QVQLVESGGGLVQAGGSLRLSCDASGPIFAWNGMGWYRPAPGKERELVAVITSGGNTNYADSVKGRFTFSLDNAKNTVFIQMNSLKPEDTAVYDCATKGYAKRTRFWSHYDYWGQGTQVNVSS | high polyreactivity |
| QVQLVESGGGLVQAGGSLRLSCDASGRICGTNAMGWYRQAPGKERELVADITSGGSTNYADSVKGRFTISRDYAKNTVYVQMNSLKPEDTAVYYCAADVIGDLRWYRDEYWGQGTQVTVSS | low polyreactivity |
| QVQLVESGGGLVQAGGSLRLSCDASGRIFDANVMGWYRQAPGKERELVAAISSGGRTKYADSVKGRFTISRDNAKNTVYLQMNSLKPEDTAVYYCNADYRNDWGTPLWYAYNYWGQGTQVTVSS | low polyreactivity |
| QVQLVESGGGLVQAGGSLRLSCDASGRIFDYYAMGWYRQAPGKEMELVAAISTSGGSTYYADSVKGRFTISRDNAKNTVYLQMTRLKPEDTAVYYWAKDITDTYPGLDYDYWGQGTQVTVSS | low polyreactivity |
| QVQLVESGGGLVQAGGSLRLSCDASGRIFFWYAMGWYRQAPGKERELVAGITSAGSTNYADSVKGRFTISRDNAKNTVYLQMNSLKPEDTSVYFCNTVDSIPIGSGLYYYWGQGTQVTVSS | low polyreactivity |
| QVQLVESGGGLVQAGGSLRLSCDASGRIFRVYAMGWYRQAHGKERQLVAAIRWTGGSTYYADSVKGRFKISRDNAKNTVYLQMNSLKPEDTAVYYCAAGRYYSDGSRTIYDYWGQGTQVTVSS | low polyreactivity |
| QVQLVESGGGLVQAGGSLRLSCDASGRIFVRYTMGWYRQATGKERELVAAITRSGGTYYADSVKGRFTISRDNATNTVYLQMNSLKPEDTAVYYCAADSWLSLWYEYWGQGTQVTVSS | low polyreactivity |
| QVQLVESGGGLVQAGGSLRLSCDASGRIFYINALGWYRQAPGKERELVASITGSGDSTYYADSVKGRFTISRDNAKNTVYLQMNILKPEDTAVYYCAARTYYYYGPRYYYWGQGTQVTVSS | low polyreactivity |
| QVQLVESGGGLVQAGGSLRLSCDASGRTFAGYAMGWYRQAPGKERELVAAITTSGGRTYYADSVKGRFTISRDNAKNTVYLQMNSLKPEDTAVYDCNVASKGRYARYAAEYGSWGQGTQVTVSS | high polyreactivity |
| QVQLVESGGGLVQAGGSLRLSCDASGRTFGLNAMGWYRQAPGKERDLVAAISSSGGSTYYADSVKWRFTISRDNAKNTVYLQMNRLKPEDNAVYYCAKVLYRYGNDYYYWGQGTQVTVSS | high polyreactivity |
